From patent US20070004634A1 (Novo Nordisk A/S, priority 1998, published 2007) come the findings set out here.

In experiment [1] the target is T1, insulin receptor construct transfected into 32D cells (Homo sapiens, UniProt P06213).
T1 construct: expressed in transfected cells; host or cells: 32D cells (clone 969)
The experiment in a line: IR autophosphorylation assay in IR transfected 32D cells (ELISA). Type of experiment: cell-based. The settings on record: tested as MBP fusion peptides. On the procedure: The IR transfected 32D cells were seeded at […] in 96-well tissue culture plates and incubated overnight at 37° C. […] The culture media was decanted from the cell culture plates, and the diluted samples were added to the cells. The plates were incubated at 37° C. for 30 min. The stimulation medium was decanted from the plates, and cell lysis buffer (50 mM HEPES pH 7.2, 150 mM NaCl, 0.5% Triton X-100, 1 mM AEBSF, 10 KIU/ml aprotinin, 50 μM leupeptin, and 2 mM sodium orthovanadate) was added. The cells were lysed for 30 min.
In the ELISA portion of the assay, the cell lysates were added to the BSA-blocked anti-IR unit mAb (Upstate Biotechnology, Lake Placid, N.Y.) coated ELISA plates. After a 2 h incubation, the plates were washed 6 times with PBST and biotinylated anti-phosphotyrosine antibody (Upstate Biotechnology) is added. After another 2 h incubation, the plates were again washed 6 times. Streptavidin-Eu was then added, and the plates were incubated for 1 h. After washing the plates again, EG&G Wallac enhancement solution (100 mM acetone-potassium hydrogen pthalate, pH 3.2; 15 mM 2-naphtyltrifluoroacetate; 50 mM tri(n-octyl)-phosphine oxide; 0.1% Triton X-100) was added into each well, and the plates were placed onto a shaker for 20 min at RT.
Background: An ELISA detects its analyte on a solid surface through an enzyme-linked reagent.

Experiment [2] has as its target recombinant human insulin receptor (Homo sapiens, UniProt P06213). In words: Substrate phosphorylation assay (HIR kinase). Type of experiment: biochemical. Conditions: Table 8, HIR kinase assay. On the procedure: Subsequently, a 2000-fold dilution of horseradish peroxidase (HRPO) conjugated phosphotyrosine antibody (Transduction Laboratories, Cat. No. E120H) in TBS was added. The plates were incubated for 30 min and washed 3 times with TBS. TMB (3,3′,5,5′-tetramethylbenzidine; Kem-En-Tec, Copenhagen, Denmark) was added. One substrate from Kem-En-Tec was added. After 10-15 min, the reaction was stopped by the addition of 1% acetic acid. The absorbance, representing the extent of substrate phosphorylation, was measured in a spectrophotometer at a wavelength of 450 nm.

Experiment [3] has as its target T2, human insulin receptor (HIR) (Homo sapiens, UniProt P06213).
T2 construct: made in house
In words: Insulin receptor binding, competition with 125I-labeled insulin (HIR Kd). The settings on record: insulin competition.

Experiment [4] concerns free fat cells (adipocytes). The experiment in a line: Adipocyte / free fat cell (FFC) assay, 3H glucose incorporation into lipid. Conditions: for FFC Pot., agonist or antagonist: Table 8, letter before the potency.
Experimental: Incorporation of ^3H into the lipid phase was determined by partitioning of lipid phase into a scintillant mixture, which excludes water-soluble ^3H products.
In another experiment the test system is MCF-7 cells. In words: MCF-7 cell proliferation assay, IGF-1R agonist format. Type of experiment: cell-based, human. The settings on record: MCF-7 and MiaPaCa cells (Tables 27-28). An excerpt: ; FIGS. 65A-65F), and were used for subsequent experiments.
Another experiment concerns IR. In words: IR activity (agonist/antagonist) of MBP-peptide fusions, Table 10; test not named. The settings on record: MBP-peptide fusion proteins; one symbol per monomer unit.

B1: H2C-9aa-H2C: MBP fusion, H2C dimer (Site 1-Site 1) with 9 amino acid linker (protein)
chain: NNNNLGIEGRISEFIEGRAQPAMAFHENFYDWFVRQVSGGSGGSGGSFHENFYDWFVRQVSAAAGAPVPYPDPLEPRAA
modifications: left off: large carriers; small tags and cut ends
Consider B1, for which the “stimulation of autophosphorylation of IR” value in experiment [1] was “active”.

B2: MADYKDDDDKGSLDESFYDWFERQLGKKGGSGGSWLDQEWAWVQCEVYGRGCPSAAA(ETAG)PG (protein)
chain: MADYKDDDDKGSLDESFYDWFERQLGKKGGSGGSWLDQEWAWVQCEVYGRGCPSAAAGAPVPYPDPLEPRPG
modifications: E-tag
With B2, the “Kinase Pot. (nM)” value in experiment [2] was “Inactive”. For the same molecule, the “IR / HIR binding affinity compared with monomer or homodimer peptides, in words” value in experiment [3] is on record as “substantially higher (several orders of magnitude) affinity”. In experiment [4], the “activity in the free fat cell (FFC) assay / at IR, in words” value was “active as specific insulin receptor antagonists”; the “FFC Pot., agonist or antagonist” value is “N”; the “activity in the FFC assay using the standard concentration of insulin” value is “inactive”; the “activity in the FFC assay in the presence of a stimulating concentration of insulin” value is listed as “antagonists”.

B3: MADYKDDDDKGSLDESFYDWFERQLGKKGGSGGSGGSGGSWLDQEWAWVQCEVYGRGCPSAAA(ETAG)PG (protein)
chain: MADYKDDDDKGSLDESFYDWFERQLGKKGGSGGSGGSGGSWLDQEWAWVQCEVYGRGCPSAAAGAPVPYPDPLEPRPG
modifications: E-tag
In the case of B3, the “Kinase Pot. (nM)” value in experiment [2] is recorded as “Inactive”. The “IR / HIR binding affinity compared with monomer or homodimer peptides, in words” value in experiment [3] is “substantially higher (several orders of magnitude) affinity”. In addition, in experiment [4], the “activity in the free fat cell (FFC) assay / at IR, in words” value is on record as “active as specific insulin receptor antagonists”; the “FFC Pot., agonist or antagonist” value was “N”; the “activity in the FFC assay using the standard concentration of insulin” value is “inactive”; the “activity in the FFC assay in the presence of a stimulating concentration of insulin” value is “antagonists”.

B4: D112-12-RP30-IGF: dimer peptide (Site 1-Site 1) (protein)
chain: ADYKDCWARPCGDAANFYDWFVQQASKKGGSGGSGGSGGSSFYSCLESLVNGGAERSDGQWEGCRAAAGAPVPYPDPLEPRPG
On to B4, for which, in the experiment with MCF-7 cells, the “IGF-1R agonist activity, proliferation of MCF-7 and MiaPaCa cells, in words” value was “IGF-1R agonist activity”.

B5: H2C-3aa-H2C: MBP fusion, H2C dimer (Site 1-Site 1) with 3 amino acid linker (protein)
chain: NNNNLGIEGRISEFIEGRAQPAMAFHENFYDWFVRQVSGGSFHENFYDWFVRQVSAAAGAPVPYPDPLEPRAA
modifications: left off: large carriers; small tags and cut ends
In the case of B5, the “stimulation of autophosphorylation of IR” value in experiment [1] is listed as “active”.

B6: 463 (protein)
chain: NNNNLGIEGRISEFIEGRAQPAMAFHENFYDWFVRQVSGGSFHENFYDWFVRQVSAAAGAPVPYPDPLEPRAA
modifications: MBP fusion
Turning to B6, the “Act. (activity)” value with IR is given as “A—A”.

B7: RP30-IGF-12-D112: dimer peptide (Site 1-Site 1) (protein)
chain: ADYKDSFYSCLESLVNGGAERSDGQWEGCRGGSGGSGGSGGSCWARPCGDAANFYDWFVQQASKKAAAGAPVPYPDPLEPRPG
B7: in the experiment with MCF-7 cells, the “IGF-1R agonist activity, proliferation of MCF-7 and MiaPaCa cells, in words” value is recorded as “IGF-1R agonist activity”.
